Assay [1] deals with T1, human BCMA (human, UniProt Q02223 1-184).
T1 construct: whole, on cells; Human is stated only for CHO-HuBCMA; also called HuBCMA; B-cell maturation antigen
T1 sequence (looked up): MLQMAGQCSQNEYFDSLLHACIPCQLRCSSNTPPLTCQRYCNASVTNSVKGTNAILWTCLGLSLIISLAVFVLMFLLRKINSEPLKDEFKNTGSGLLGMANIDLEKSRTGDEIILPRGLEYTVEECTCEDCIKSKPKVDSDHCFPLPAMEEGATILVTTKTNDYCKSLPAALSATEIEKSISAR
Briefly: FACS on H929 cells, Fc formatted.

The target in assay [2] is T2, CD38 (UniProt P28907 1-300, limits assumed).
T2 construct: whole, on cells; also called CD38 on RPMI8226 cells; CD38 on H929 cells
T2 sequence (looked up): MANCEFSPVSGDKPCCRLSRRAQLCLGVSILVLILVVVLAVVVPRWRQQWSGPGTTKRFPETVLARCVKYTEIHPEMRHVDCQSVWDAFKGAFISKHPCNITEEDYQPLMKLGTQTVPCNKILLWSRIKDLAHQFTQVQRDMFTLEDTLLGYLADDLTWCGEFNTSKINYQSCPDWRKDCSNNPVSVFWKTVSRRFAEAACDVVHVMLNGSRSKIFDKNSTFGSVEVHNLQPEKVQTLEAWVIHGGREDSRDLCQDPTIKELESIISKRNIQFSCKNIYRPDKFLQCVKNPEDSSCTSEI
Briefly: FACS on RPMI8226 cells, VHH-His.

Assay [3] concerns the target T2, CD38. The assay can be described thus: FACS on H929 cells, VHH-His.
For assay [4], the target named is T3, human GPRC5D (human, UniProt Q9NZD1 1-345).
T3 construct: whole, on cells; Human is stated only for CHO-HuGPRC5D; also called HuGPRC5D; GPRC5D on CHO-HuGPRC5D cells
T3 sequence (Q9NZD1 whole entry): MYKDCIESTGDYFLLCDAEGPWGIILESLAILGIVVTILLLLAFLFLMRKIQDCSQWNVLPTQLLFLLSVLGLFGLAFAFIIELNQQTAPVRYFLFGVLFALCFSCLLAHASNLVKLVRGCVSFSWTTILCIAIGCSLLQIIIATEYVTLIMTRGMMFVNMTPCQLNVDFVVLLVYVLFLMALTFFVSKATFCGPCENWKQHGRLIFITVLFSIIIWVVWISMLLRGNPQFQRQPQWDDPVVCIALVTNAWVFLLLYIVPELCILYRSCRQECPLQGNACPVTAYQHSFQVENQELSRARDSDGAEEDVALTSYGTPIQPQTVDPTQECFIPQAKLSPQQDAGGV
Briefly: FACS on CHO-HuGPRC5D cells, VHH-His.

Assay [5] addresses T3, human GPRC5D. Briefly: FACS on H929 cells, VHH-His.
The target in assay [6] is T3, human GPRC5D. Briefly: FACS on CHO-HuGPRC5D cells.
For assay [7], the target named is T1, human BCMA. The assay can be described thus: FACS on CHO-HuBCMA cells, Fc formatted.

27 molecules from patent US20260274983A1 (MODERNATX, published 2026) can be followed below.

Numbering of substitutions follows the chain as printed. Bounds are passed on as bounds.

B1: BCMA-VHH1 (Fc fusion)
chain: AVQLVDSGGGLVTAGDSLTLSCVASGRTLSPYTAGWFRQAPGREREFVALITARGDWTSYSDSVKGRFTISRDNAKNTIYLQMNSLEPEDTALYYCVRDLLGRDDYWGQGTQVTVSS
notes: not shown: Fc of the Fc formatted construct
Take B1: it took 78 nM to reach a half-maximal effect in the assay with human BCMA [1] (EC50). This lies in the double-digit nanomolar range.

B2: BCMA-VHH9 (Fc fusion)
chain: QVKLEESGGGFVQPGGSLRLSCAASGFTYSSYWMHWVRQAPGKGLEWVSGISTGGDTTDTYYADSVKGRFTISRDNAKNTLYLQMNSLKPEDTAVYYCVALNLWGTDLEHDYWGRGTQVTVSS
notes: as for B1
In the case of B2, the midpoint of the response with human BCMA [1], the EC50, lay at 43.4 nM. This EC50 is about 1.8-fold lower than that of the molecule before.

B3: CD38-VHH6 (VHH)
VHH: QVQLVESGGGLVQAGGSLRLSCAASGTFSSINLMGYYRQAPGKQREFVARDYTEGTTDYADSVKGRFTISRDNTKKTVFLQMNNLKPEDTAIYYCWLMVRAGDVYWGQGTQVTVSS
In the case of B3, the EC50 (in general, the concentration at which the effect is half-maximal) in the assay with CD38 [2] was determined as 28.4 nM; with CD38 [3] it was 101 nM.

B4: BCMA-VHH7 (Fc fusion)
chain: EVQLVDSGGGLVQAGGSLRLSCAASGSTFSRYAMGWIRQAPGKEREFVAAISWSGGSTYYADSVKGRFTISRDVAKNTVSLQMNSLKPEDAGVYFCFGDIIRSGERSDYEYWGQGTRVTVTS
notes: as for B1
B4: the midpoint of the response with human BCMA [1], the EC50, lay at 268 nM.

B5: CD38-VHH7 (VHH)
VHH: QVQLVESGGGLVHTGGSLRLSCAASGSISGLNTMGWYRQAPGKQRELVATIISGTMTRYADSVKGRFTISKDNAKNTVYLQMNSLKPEDTAVYYCTFKEITRDSRSYWGQGTQVTVSS
For the molecule B5, the half-maximal effective concentration (EC50) with CD38 [2] came to 1.91 nM; with CD38 [3], 3.55 nM.

B6: GPRC5D-VHH1 (VHH)
VHH: SVQLVESEGGLVQAGGSLRLSCVASGRTVSSYAMGWFRQAPGKEREFVAAISWSGRSTYYADSMKGRFTISRDNAKNTVYLQMNNLRPEDTAVYYCATSRAVIPGRDWNYYEYSGQGTQVTVSS
B6: the EC50 in the assay with human GPRC5D [4] is 2.52 nM; in the assay with human GPRC5D [5], 13.2 nM.

B7: GPRC5D-VHH1-H7 (VHH)
VHH: B6 VHH with S1Q, E8G, A14P, V23A, A49S, V79L, N85S, P88A, S114W, Q119L
notes: Humanized variant of GPRC5D-VHH1
B7 gave a half-maximal effective concentration (EC50) in the assay with human GPRC5D [6] of 4.44 nM.

B8: CD38-VHH1 (VHH)
VHH: QVQLVESGGGLVQPGDSLRLSCAASGFILDTYSVAWFRQAPGKEREGVSCISSRDGNTFYSDSVKGRFTISRDNAKNTVYLQMNSLKSEDTAVYTCAAGAQAHCTIFTSYFNSDYYRRYNYWGQGTQVTVSS
On to B8, for which the concentration giving a half-maximal response (EC50) with CD38 [2] was less than 1 nM; with CD38 [3], 4.43 nM.

B9: CD38-VHH9 (VHH)
VHH: QVQLVESGGGLVQAGGSLRLSCVASGFIYSISTMGWYRQAPGKQRELVATITSGGNTNYADSVKGRFTISRDNAQNTVYLQMNNLKPEDTAIYYCNTAWRETIVSRVWGQGTQVTVSS
Turning to B9, the values for the EC50 with CD38 [2] and with CD38 [3] were 0.51 nM and 2.62 nM, respectively.

B10: BCMA-VHH2 (Fc fusion)
chain: HVQLVESGGGLVQTGGSLRLSCAASGRTLNNYVVAWFRQAPGKEREFVATMWWSGGSPWYSDNVKGRFTISRDNAKNTLYLQMNSLRPEDTAVYYCAATWVGTSEYRHWGQGTQVTVSS
notes: as for B1
In the assay with human BCMA [7], B10 gave an EC50 of 0.8 nM.

B11: BCMA-VHH4 (Fc fusion)
chain: B10 chain with H1Q, Q3K, V5E, R107Q
notes: as for B1
On to B11, for which the half-maximal effective concentration (EC50) in the assay with human BCMA [7] worked out at 0.57 nM.

B12: BCMA-VHH3 (Fc fusion)
chain: QVQLVESGGGLVQAGGSLRLSCAASGSIFAYHVMGWYRQAPGKQRELVALITSGGSTNYTDSVKGRFTISRDNAKNTVYLQMNSLKPEDTAVYYCAIGYYSGSYYWERSGDYWGQGTQVTVSS
notes: as for B1
On to B12, for which, in the assay with human BCMA [1], the half-maximal effective concentration (EC50) is 11 nM.

B13: BCMA-VHH17 (Fc fusion)
chain: QVQLVESGGGLVQAGGSLRLSCAASGRTFSGYTMAWFRQAPGSEREFVAAAVGSDGSTYYVDSVKGRFTMSRDSAKNTVYLMMTSLQPVDSAVYFCVKLDSGAWSLAEWGQGTQVTVSS
notes: as for B1
Consider B13, for which a half-maximal effect with human BCMA [1] (EC50) was put at 1.01 nM.

B14: BCMA-VHH8 (Fc fusion)
chain: QVQLVQSGGGLVLPGGSLRLSCAASGFTLSSYWMHWLRQAPGKGLEWVSAIKPESGITYYAESMKGRFTISRDNAKNTLYLQMNSLKSEDSALYYCVREDYDSAYVGDYWGKGTQVTVSS
notes: as for B1
For B14, the EC50 with human BCMA [7] was determined as 170 nM.

B15: BCMA-VHH20 (Fc fusion)
chain: QVQLVESGGGLVQPGGSLRLSCAASGFTFSNYAMIWVRQAPGKGLEWVSSINANSDTTAYSDSVKGRFAISRDNARNTLYLQMNSLKPEDTAVYFCVSDSYIGGLYATYVYWGQGTQVTVSS
notes: as for B1
As to B15, the concentration for a half-maximal effect (EC50) with human BCMA [1] amounted to 83.4 nM.

B16: BCMA-VHH11 (Fc fusion)
chain: QVQLVDSGGGLVQPGGSLRLSCAASGFTFSSYWMYWVRQAPGKGLEWVSAINTDGDSTYYADSVKGRFTVSRDVAGNMIYLQMTNLKPEDTAVYTCAAIVTRSDGHQYDYWGRGTQVTVSV
notes: as for B1
B16 returned a concentration for a half-maximal effect (EC50) in the assay with human BCMA [1] of 45.9 nM.

B17: CD38-VHH5 (VHH)
VHH: QVQLVESGGGLVQTGGSLRLSCVASGAIVSAESMGWYRQAPGNQRELVAEIISGSKSNYGESVKGRFTISRDNAENTVYLQMNSVKPEDTAVYYCKRTERIWTNNPQVYWGQGTQVTVSS
Molecule B17 yielded an EC50 with CD38 [2] of 71.3 nM.

B18: CD38-VHH12 (VHH)
VHH: QVQLVESGGGLVQAGGSLRLSCVASGIIFRIFSMGWYRQAPGKQRELVATITSGGNTNYAHSVKGRFTISRDDAKNTVNLQMNSLKPEDTAVYYCNVAIPSGIVDRSAWGQGTQVTVSS
B18: the half-maximal effective concentration (EC50) in the assay with CD38 [2] stood at 10.5 nM; with CD38 [3], 25.7 nM.

B19: BCMA-VHH16 (Fc fusion)
chain: QVKLEESGGGLVQAGGSLRLSCAASGHTFSNSAMGWIRQAPGKEREFVAAISLNGGNTHYAESVKGRFAISRDNAKNTMYLQMNSLKPEDTAVYYCATLGFASWGQGTQVTVSS
notes: as for B1
Molecule B19 came in with an EC50 in the assay with human BCMA [1] of 41.8 nM.

B20: CD38-VHH2 (VHH)
VHH: QVQLVESGGGLVQPGGSLRLSCAASGFIFSDKVMSWVRQAPGKGREWVSTITPGGTATSYTESVKGRFTISRDNAKNTLYLQMNNLKPDDTALYYCRIGGPGGRYDNWGQGTQVTVSS
In the case of B20, the figures for the EC50 in the assay with CD38 [2] and in the assay with CD38 [3] were 1.01 nM and 6.14 nM, respectively.

B21: GPRC5D-VHH2 (VHH)
VHH: QVQLVESGGGLVQAGGSLRLSCAASGRTASAYVMGWFRQAPGKERDFVAGISGGAYYADSVKGRFTIARDNAKNTVYLQMNSLKPEDTAVYYCAAERGMRRLTESYQYDYWGQGTQVTVSS
For B21, the EC50 with human GPRC5D [4] worked out at 0.68 nM; with human GPRC5D [5], 0.23 nM.

B22: BCMA-VHH18 (Fc fusion)
chain: PVQLVESGGGLVQAGGSLRLSCAASGRTFSSYAMGWFRQAPGKEREFVAGVSWTGDNTGYADSVKGRFTISRDNFKSTVYLEMNSLKPEDTAVYFCAAWNWGHHEYTYWGRGTQVTVSS
notes: as for B1
Molecule B22 had an EC50 with human BCMA [7] of 1020 nM.

B23: BCMA-VHH13 (Fc fusion)
chain: QVQLVDSGGRLVQAGDSLRLSCSASGFTFGSYWMFWVRQAPGKGLEWVSAIDTSGGHVYYGDSVNGRFTISRDNAKNTLYLQMNSLKPEDTALYYCARVENTWESIYWGQGTTVTVSS
notes: as for B1
For the molecule B23, it took 15.5 nM to reach a half-maximal effect in the assay with human BCMA [1] (EC50).

B24: BCMA-VHH15 (Fc fusion)
chain: QVQLVESGGGLVQPGGSLRLSCAASGFTFSTYSMYWVRQAPGKGLEWVSAIDARGVNTYYADSVRGRFTVSRDNAKNTLYLQMNNLKLEDTALYYCGGWEFATWGRGTQVTVSS
notes: as for B1
The molecule B24 yielded a concentration giving a half-maximal response (EC50) with human BCMA [7] of 1.76 nM.

B25: GPRC5D-VHH3 (VHH)
VHH: QVKLVESGGGLVQPGGSLRLSCVGSGIIFSASNLAWYRQALGKQRELVAGVTGGGSINYADSVKGRFTISRDNAKNTIYLQMNSLKPEDTAVYYCNARRSYSHWGQGTRVTVSS
B25: the EC50 with human GPRC5D [4] stood at 4.23 nM; in the assay with human GPRC5D [5], 1.65 nM.

B26: CD38-VHH3 (VHH)
VHH: QVQLVESGGGLVQAGGSLTLSCAASRSIFEINTMTMGWYRQAPGKQRELIAASRGATTNYADSVKGRFTISRDNAKNTVYLQMNSLKPEDTAVYYCSADRYGFGYGDNDYWGQGTQVTVSS
As to B26, the values for the EC50 with CD38 [2] and with CD38 [3] were 0.35 nM and 1.36 nM, respectively.

B27: CD38-VHH8 (VHH)
VHH: QVQLVESGGGLVQAGGSLRLSCAASGSSVSMNSMAWYRQAPGKQRELVALITPGDRINYADFVKGRFTISRDNAKNTVNLQMNNLKPEDTAVYYCNIGATRPPFGAWGQGTQVTVSS
As to B27, the half-maximal effective concentration (EC50) with CD38 [2] stood at 0.45 nM; with CD38 [3] it was 2.06 nM.
